Source: US6558918

What was measured:
[1] = target: Cdc2-A14/cyclin B1 complex, P06493
[2] = target: Cdc2-AF/CyclinB1 complex, P06493
[3] = target: Cdc2-F15/CyclinB1 complex, P06493
[4] = target: Cdc2/cyclin A complex, P06493
[5] = target: Cdk2/cyclin A complex, P24941
[6] = target: Cdk2/cyclin E complex, P24941
[7] = target: Cdk4/cyclin D1 complex, P11802
[8] = target: kinase-deficient Cdc2 mutant (K-) complexed with cyclin B1, P06493
[9] = target: monomeric Cdc2, P06493
[10] = target: wild-type Cdc2/cyclin B1 complex, P06493
wild-type Cdc2/cyclin B1 complex, P06493, sequence (P06493 whole entry, looked up, one chain of several): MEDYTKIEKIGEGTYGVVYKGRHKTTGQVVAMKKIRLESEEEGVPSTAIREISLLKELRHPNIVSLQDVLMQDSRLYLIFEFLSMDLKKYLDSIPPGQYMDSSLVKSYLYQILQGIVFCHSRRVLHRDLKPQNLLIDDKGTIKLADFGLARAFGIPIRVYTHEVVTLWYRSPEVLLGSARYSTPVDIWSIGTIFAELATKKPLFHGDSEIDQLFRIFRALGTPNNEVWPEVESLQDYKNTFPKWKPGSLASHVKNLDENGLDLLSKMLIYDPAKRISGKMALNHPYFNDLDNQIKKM

kinase-deficient Cdc2 mutant (K-) complexed with cyclin B1, P06493, sequence (P06493 whole entry, looked up, change not shown, one chain of several): as the sequence (P06493 whole entry, looked up, one chain of several) above
Cdc2/cyclin A complex, P06493, sequence (P06493 whole entry, looked up, one chain of several): as above
Cdc2-F15/CyclinB1 complex, P06493, sequence (P06493 whole entry, looked up, one chain of several): as above
Cdc2-AF/CyclinB1 complex, P06493, sequence (P06493 whole entry, looked up, one chain of several): as above
monomeric Cdc2, P06493, sequence (P06493 whole entry, looked up): as the sequence (P06493 whole entry, looked up, one chain of several) above
Cdc2-A14/cyclin B1 complex, P06493, sequence (P06493 whole entry, looked up, one chain of several): as above
Cdk4/cyclin D1 complex, P11802, sequence (P11802 whole entry, looked up, one chain of several): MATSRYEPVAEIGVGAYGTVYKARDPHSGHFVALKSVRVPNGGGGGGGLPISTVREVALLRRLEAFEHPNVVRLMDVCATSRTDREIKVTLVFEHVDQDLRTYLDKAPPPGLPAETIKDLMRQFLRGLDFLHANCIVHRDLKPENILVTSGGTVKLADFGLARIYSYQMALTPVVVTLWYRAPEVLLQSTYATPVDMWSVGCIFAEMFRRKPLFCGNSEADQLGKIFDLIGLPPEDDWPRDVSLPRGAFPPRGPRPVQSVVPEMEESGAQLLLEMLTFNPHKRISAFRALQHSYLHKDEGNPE

B1: Cell Growth Regulatory Protein, truncated hybrid protein (residues 1-9 deleted) with N-terminal Glu-Glu tag, expressed in Sf9 cells (protein)
chain: MEYMPMEGTRPEMPMPTEGTPPPLSGTPIPVPAYFRHAEPGFSLKRPRGLSRSLPPPPPAKGSIPISRLFPPRTPGWHQLQPRRVSFRGEASETLQSPGYDPSRPESFFQQSFQRLSRLGHGSYGEVFKVRSKEDGRLYAVKRSMSPFRGPKDRARKLAEVGSHEKVGQHPCCVRLEQAWEEGGILYLQTELCGPSLQQHCEAWGASLPEAQVWGYLRDTLLALAHLHSQGLVHLDVKPANIFLGPRGRCKLGDFGLLVELGTAGAGEVQEGDPRYMAPELLQGSYGTAADVFSLGLTILEVACNMELPHGGEGWQQLRQGYLPPEFTAGLSSELRSVLVMMLEPDPKLRATAEALLALPVLRQPRAWGVLWCMAAEALSRGWALWQALLALLCWLWHGLAHPASWLQPLGPPATPPDSPPCSLLLDSSFSSNWDDDSLGPSLSPEAVLARTVGSTSTPRSRCTPRDALDLSDINSEPPRGSFPSFEPRNLLSMFEDTLDPT
- histone H1 kinase activity (Cdc2 kinase activation) in mixed Sf9 lysates [1]: such lysates also inhibited both Cdc2-A14 and Cdc2-F15 activation; Cdc2-A14 lysates consistently retain some histone H1 kinase activity
- 32P-labeling in a kinase reaction with affinity purified proteins, SDS-PAGE [2]: the Cdc2-AF mutant was not phosphorylated by Cell Growth Regulatory Protein or Wee1
- histone H1 kinase activity (Cdc2 kinase activation) in mixed Sf9 lysates [3]: such lysates also inhibited both Cdc2-A14 and Cdc2-F15 activation
- histone H1 kinase activity in mixed Sf9 lysates [4]: greatly reduced histone H1 kinase activity compared to a mock-treated or Cdc2-AF control lysate
- 32P-labeling in a kinase reaction with purified proteins [5]: Cell Growth Regulatory Protein failed to phosphorylate Cdk2 that was complexed with either cyclin A or cyclin E
- histone H1 kinase activity in mixed Sf9 lysates, wild-type Cdk2 against Cdk2-AF [5]: an equivalent amount of histone H1 kinase activity was present in wild-type Cdk2 and Cdk2-AF lysates that had been mixed with either cyclin A or cyclin E lysates in the presence of Cell Growth Regulatory Protein
- 32P-labeling in a kinase reaction with purified proteins [6]: Cell Growth Regulatory Protein failed to phosphorylate Cdk2 that was complexed with either cyclin A or cyclin E
- histone H1 kinase activity in mixed Sf9 lysates, wild-type Cdk2 against Cdk2-AF [6]: an equivalent amount of histone H1 kinase activity was present in wild-type Cdk2 and Cdk2-AF lysates that had been mixed with either cyclin A or cyclin E lysates in the presence of Cell Growth Regulatory Protein
- 32P-labeling in a kinase reaction with purified proteins [7]: neither Cell Growth Regulatory Protein nor Wee1 phosphorylated the Cdk4 subunit
- 32P-labeling in a kinase reaction with affinity purified proteins, SDS-PAGE [8]: both purified Cell Growth Regulatory Protein and Wee1 kinases were capable of phosphorylating wild-type Cdc2 as well as a kinase-deficient Cdc2 mutant (K-), each of which was complexed with cyclin B1
- phosphoamino acid analysis of 32P-labeled Cdc2 [8]: phosphorylation occurred only on threonine residues
- 32P-labeling in a kinase reaction with monomeric Cdc2 as substrate [9]: Cell Growth Regulatory Protein did not phosphorylate monomeric Cdc2
- 32P-labeling in a kinase reaction with affinity purified proteins, SDS-PAGE [10]: both purified Cell Growth Regulatory Protein and Wee1 kinases were capable of phosphorylating wild-type Cdc2 as well as a kinase-deficient Cdc2 mutant (K-), each of which was complexed with cyclin B1
- 32P-labeling in a kinase reaction with the Cdc2/cyclin B1 complex reconstituted from monomers [10]: reconstitution of the Cdc2/cyclin B1 complex, by pre-incubating monomeric Cdc2 with monomeric cyclin B1, enabled Cell Growth Regulatory Protein to phosphorylate Cdc2
- histone H1 kinase activity (Cdc2 kinase activation) in mixed Sf9 lysates [10]: a dramatic reduction in Cdc2 kinase activation was observed, similar to that observed for Wee1
- immunoblotting of mixed lysates with phosphotyrosine antibodies [10]: showed that Cdc2 was phosphoryalted on Tyrosine 15 to some extent
